± gives the standard deviation.
Assay: collision cross section of modified peptide (TIMS, N2, iRT-aligned); higher = larger / more extended gas-phase ion
Summary of the method: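 Collision cross section values rest on the Mason-Schamp equation applied to calibrated, run-aligned mobility data from synthetic peptides. Mobility (1/K0) was calibrated with three reference ions and aligned per run to the median iRT peptide deviation, and 1–3 technical replicates of the most abundant feature per charge state were averaged. Data came from a timsTOF Pro/HT in dda-PASEF mode (nitrogen, ~2.4 mbar) after a 120-min nanoflow C18 gradient at 60 °C.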

[1] = charge state: 2, modification: GlyGly (K)
[2] = charge state: 3, modification: GlyGly (K)
[3] = charge state: 2, modification: Malonyl
[4] = charge state: 3, modification: Malonyl
[5] = charge state: 2, modification: Methyl (K)
[6] = charge state: 3, modification: Methyl (K)
[7] = charge state: 2, modification: Succinyl
[8] = charge state: 2, modification: hydroxyisobutyryl
[9] = charge state: 2, modification: Hydroxyproline
[10] = charge state: 2, modification: Citrullination (R)
[11] = charge state: 3, modification: Citrullination (R)
[12] = charge state: 2, modification: Methyl (R)
[13] = charge state: 3, modification: Methyl (R)
[14] = charge state: 2, modification: Acetyl (K)
[15] = charge state: 2, modification: Biotin
[16] = charge state: 2, modification: Butyryl
[17] = charge state: 2, modification: Crotonyl
[18] = charge state: 2, modification: Dimethyl (K)
[19] = charge state: 3, modification: Dimethyl (K)
[20] = charge state: 2, modification: Formyl
[21] = charge state: 2, modification: Glutarylation
[22] = charge state: 2, modification: Propionyl
[23] = charge state: 3, modification: Succinyl
[24] = charge state: 2, modification: Trimethyl (K)
[25] = charge state: 3, modification: Trimethyl (K)
[26] = charge state: 3, modification: Acetyl (K)
[27] = charge state: 3, modification: Butyryl
[28] = charge state: 3, modification: Crotonyl
[29] = charge state: 3, modification: Glutarylation
[30] = charge state: 3, modification: hydroxyisobutyryl

LGVATVAKGVCGACK [_LGVATVAK(GlyGly (K))GVCGACK_]
collision cross section [1]: 453.34 ± 1.4 Å² | collision cross section [2]: 497.41 ± 0.34 Å²

LGVATVAKGVCGACK [_LGVATVAK(Malonyl)GVCGACK_]
collision cross section [3]: 416.08 ± 0.71 Å² | collision cross section [4]: 487.74 Å²

LGVATVAKGVCGACK [_LGVATVAK(Methyl (K))GVCGACK_]
collision cross section [5]: 433.3 ± 0.37 Å² | collision cross section [6]: 457.05 ± 3.9 Å²

LGVATVAKGVCGACK [_LGVATVAK(Succinyl)GVCGACK_]
collision cross section [7]: 417.57 ± 0.55 Å²

LGVATVAKGVCGACK [_LGVATVAK(hydroxyisobutyryl)GVCGACK_]
collision cross section [8]: 419.46 ± 1.2 Å²

LGVPGLPGYPGR [_LGVPGLPGYP(Hydroxyproline)GR_]
collision cross section [9]: 362.53 ± 0.8 Å²

LGVPGLPGYPGRQGPK [_LGVPGLP(Hydroxyproline)GYPGRQGPK_]
collision cross section [9]: 416.79 ± 1.1 Å² | collision cross section (charge state: 3, modification: Hydroxyproline): 499.55 ± 1.2 Å²

LLALSGPGGGRGR [_LLALSGPGGGR(Citrullination (R))GR_]
collision cross section [10]: 366.92 ± 1 Å² | collision cross section [11]: 440.81 ± 17 Å²

LLALSGPGGGRGR [_LLALSGPGGGR(Methyl (R))GR_]
collision cross section [12]: 387.94 ± 0.53 Å² | collision cross section [13]: 446.53 ± 3.2 Å²

LLEEEDSKLK [_LLEEEDSK(Acetyl (K))LK_]
collision cross section [14]: 378.84 ± 0.45 Å²

LLEEEDSKLK [_LLEEEDSK(Biotin)LK_]
collision cross section [15]: 405.12 ± 2.5 Å²

LLEEEDSKLK [_LLEEEDSK(Butyryl)LK_]
collision cross section [16]: 385.99 ± 0.85 Å²

LLEEEDSKLK [_LLEEEDSK(Crotonyl)LK_]
collision cross section [17]: 386.83 ± 0.27 Å²

LLEEEDSKLK [_LLEEEDSK(Dimethyl (K))LK_]
collision cross section [18]: 385.27 ± 0.26 Å² | collision cross section [19]: 435.11 ± 2.1 Å²

LLEEEDSKLK [_LLEEEDSK(Formyl)LK_]
collision cross section [20]: 374.12 ± 0.55 Å²

LLEEEDSKLK [_LLEEEDSK(Gluratylation)LK_]
collision cross section [21]: 387.79 ± 0.61 Å²

LLEEEDSKLK [_LLEEEDSK(GlyGly (K))LK_]
collision cross section [1]: 386.87 ± 0.88 Å² | collision cross section [2]: 453.7 ± 1.6 Å²

LLEEEDSKLK [_LLEEEDSK(Malonyl)LK_]
collision cross section [3]: 379.46 ± 1.1 Å²

LLEEEDSKLK [_LLEEEDSK(Methyl (K))LK_]
collision cross section [5]: 382.93 ± 0.7 Å² | collision cross section [6]: 439.97 ± 5.9 Å²

LLEEEDSKLK [_LLEEEDSK(Propionyl)LK_]
collision cross section [22]: 383.32 ± 0.94 Å²

LLEEEDSKLK [_LLEEEDSK(Succinyl)LK_]
collision cross section [7]: 381.87 ± 0.24 Å² | collision cross section [23]: 464.35 Å²

LLEEEDSKLK [_LLEEEDSK(Trimethyl (K))LK_]
collision cross section [24]: 388.34 ± 1.1 Å² | collision cross section [25]: 441.46 ± 2.4 Å²

LLEEEDSKLK [_LLEEEDSK(hydroxyisobutyryl)LK_]
collision cross section [8]: 385.85 ± 5.2 Å²

LLEQKTQESQK [_LLEQK(Acetyl (K))TQESQK_]
collision cross section [14]: 392.69 ± 0.79 Å²

LLEQKTQESQK [_LLEQK(Biotin)TQESQK_]
collision cross section [15]: 419.49 ± 1.1 Å²

LLEQKTQESQK [_LLEQK(Butyryl)TQESQK_]
collision cross section [16]: 398.26 ± 0.79 Å²

LLEQKTQESQK [_LLEQK(Crotonyl)TQESQK_]
collision cross section [17]: 398.38 ± 1.1 Å²

LLEQKTQESQK [_LLEQK(Dimethyl (K))TQESQK_]
collision cross section [18]: 409.09 ± 1.6 Å² | collision cross section [19]: 453.46 ± 1.6 Å²

LLEQKTQESQK [_LLEQK(Formyl)TQESQK_]
collision cross section [20]: 386.78 ± 0.55 Å²

LLEQKTQESQK [_LLEQK(Gluratylation)TQESQK_]
collision cross section [21]: 402.96 ± 0.5 Å²

LLEQKTQESQK [_LLEQK(GlyGly (K))TQESQK_]
collision cross section [1]: 410.36 ± 1.9 Å² | collision cross section [2]: 452.18 ± 1.1 Å²

LLEQKTQESQK [_LLEQK(Malonyl)TQESQK_]
collision cross section [3]: 397.91 ± 0.65 Å²

LLEQKTQESQK [_LLEQK(Methyl (K))TQESQK_]
collision cross section [5]: 404.61 ± 2.3 Å² | collision cross section [6]: 458.64 ± 4.9 Å²

LLEQKTQESQK [_LLEQK(Propionyl)TQESQK_]
collision cross section [22]: 393.54 ± 0.65 Å²

LLEQKTQESQK [_LLEQK(Succinyl)TQESQK_]
collision cross section [7]: 400.32 ± 0.77 Å²

LLEQKTQESQK [_LLEQK(Trimethyl (K))TQESQK_]
collision cross section [24]: 409.98 ± 2.2 Å² | collision cross section [25]: 452.07 ± 1.5 Å²

LLEQKTQESQK [_LLEQK(hydroxyisobutyryl)TQESQK_]
collision cross section [8]: 401.39 ± 0.81 Å²

LLFSNTAAQKLR [_LLFSNTAAQK(Acetyl (K))LR_]
collision cross section [14]: 400.1 ± 2.9 Å² | collision cross section [26]: 478.35 ± 0.83 Å²

LLFSNTAAQKLR [_LLFSNTAAQK(Biotin)LR_]
collision cross section [15]: 418.21 ± 1.1 Å² | collision cross section (charge state: 3, modification: Biotin): 503.51 Å²

LLFSNTAAQKLR [_LLFSNTAAQK(Butyryl)LR_]
collision cross section [16]: 405.4 ± 0.23 Å² | collision cross section [27]: 483.12 ± 3.2 Å²

LLFSNTAAQKLR [_LLFSNTAAQK(Crotonyl)LR_]
collision cross section [17]: 404.43 ± 0.55 Å² | collision cross section [28]: 483.58 ± 1.6 Å²

LLFSNTAAQKLR [_LLFSNTAAQK(Dimethyl (K))LR_]
collision cross section [18]: 419.08 ± 0.75 Å² | collision cross section [19]: 473.77 ± 2.6 Å²

LLFSNTAAQKLR [_LLFSNTAAQK(Formyl)LR_]
collision cross section [20]: 395.38 ± 0.55 Å²

LLFSNTAAQKLR [_LLFSNTAAQK(Gluratylation)LR_]
collision cross section [21]: 406.85 ± 0.6 Å² | collision cross section [29]: 487.13 ± 1.7 Å²

LLFSNTAAQKLR [_LLFSNTAAQK(GlyGly (K))LR_]
collision cross section [1]: 433.64 ± 0.96 Å² | collision cross section [2]: 492.29 ± 2 Å²

LLFSNTAAQKLR [_LLFSNTAAQK(Malonyl)LR_]
collision cross section [3]: 400.72 ± 0.029 Å²

LLFSNTAAQKLR [_LLFSNTAAQK(Methyl (K))LR_]
collision cross section [5]: 416.21 ± 1.5 Å² | collision cross section [6]: 479.76 ± 3.4 Å²

LLFSNTAAQKLR [_LLFSNTAAQK(Succinyl)LR_]
collision cross section [7]: 404.93 ± 0.55 Å² | collision cross section [23]: 482.98 ± 3.3 Å²

LLFSNTAAQKLR [_LLFSNTAAQK(Trimethyl (K))LR_]
collision cross section [24]: 428.25 ± 0.6 Å² | collision cross section [25]: 480.65 ± 2.4 Å²

LLFSNTAAQKLR [_LLFSNTAAQK(hydroxyisobutyryl)LR_]
collision cross section [8]: 408.17 ± 0.55 Å² | collision cross section [30]: 486.85 ± 1.9 Å²

LLIVSTTPYSEKDTK [_LLIVSTTPYSEK(Acetyl (K))DTK_]
collision cross section [14]: 449.39 ± 2.3 Å² | collision cross section [26]: 486.31 ± 3 Å²

LLIVSTTPYSEKDTK [_LLIVSTTPYSEK(Biotin)DTK_]
collision cross section [15]: 480.64 Å²

LLIVSTTPYSEKDTK [_LLIVSTTPYSEK(Butyryl)DTK_]
collision cross section [16]: 459.06 ± 0.51 Å² | collision cross section [27]: 488.4 ± 2.4 Å²

LLIVSTTPYSEKDTK [_LLIVSTTPYSEK(Crotonyl)DTK_]
collision cross section [17]: 458.47 ± 1.4 Å² | collision cross section [28]: 486.79 ± 2.7 Å²

LLIVSTTPYSEKDTK [_LLIVSTTPYSEK(Dimethyl (K))DTK_]
collision cross section [18]: 459.41 ± 1.9 Å² | collision cross section [19]: 505.24 ± 1.6 Å²

LLIVSTTPYSEKDTK [_LLIVSTTPYSEK(Formyl)DTK_]
collision cross section [20]: 448.09 ± 0.69 Å² | collision cross section (charge state: 3, modification: Formyl): 480.73 ± 1.5 Å²

LLIVSTTPYSEKDTK [_LLIVSTTPYSEK(Gluratylation)DTK_]
collision cross section [21]: 462.31 ± 1.5 Å² | collision cross section [29]: 493.7 ± 1.3 Å²

LLIVSTTPYSEKDTK [_LLIVSTTPYSEK(GlyGly (K))DTK_]
collision cross section [1]: 461.81 ± 0.94 Å² | collision cross section [2]: 515.54 ± 1.1 Å²

LLIVSTTPYSEKDTK [_LLIVSTTPYSEK(Malonyl)DTK_]
collision cross section [3]: 454.81 ± 0.99 Å² | collision cross section [4]: 468.47 ± 1.2 Å²

LLIVSTTPYSEKDTK [_LLIVSTTPYSEK(Methyl (K))DTK_]
collision cross section [5]: 465.27 ± 2.3 Å² | collision cross section [6]: 508.6 ± 2 Å²

LLIVSTTPYSEKDTK [_LLIVSTTPYSEK(Propionyl)DTK_]
collision cross section [22]: 452.01 Å²

LLIVSTTPYSEKDTK [_LLIVSTTPYSEK(Succinyl)DTK_]
collision cross section [7]: 458.63 ± 1.1 Å² | collision cross section [23]: 480.04 ± 2.5 Å²

LLIVSTTPYSEKDTK [_LLIVSTTPYSEK(Trimethyl (K))DTK_]
collision cross section [24]: 468.15 ± 1.2 Å² | collision cross section [25]: 501.69 ± 1.8 Å²

LLIVSTTPYSEKDTK [_LLIVSTTPYSEK(hydroxyisobutyryl)DTK_]
collision cross section [8]: 461.48 ± 0.76 Å² | collision cross section [30]: 486.54 ± 2.8 Å²

LLRGVGGSHGR [_LLR(Citrullination (R))GVGGSHGR_]
collision cross section [10]: 372.77 ± 0.65 Å² | collision cross section [11]: 442.38 ± 1.8 Å²

LLRGVGGSHGR [_LLR(Methyl (R))GVGGSHGR_]
collision cross section [12]: 374.24 Å² | collision cross section [13]: 456.7 ± 11 Å²

LNAIYQNNLTK [_LNAIY(Nitro (Y))QNNLTK_]
collision cross section (charge state: 2, modification: Nitro (Y)): 384.56 ± 0.55 Å²

— the supplement of paper PMC10598134
